# Test: yeast display, Sf9 membrane polyspecificity reagent, FACS + sequencing; frameworks hold sequencing errors
# How it was run: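 Sorting gates, low and high (top ~1%), were placed on anti-HA fluorescence to track expression and on streptavidin fluorescence to track reagent binding. A clone's polyreactivity label is taken from the gate it came out of. The reagent was 10% biotinylated, detergent-solubilized Sf9 membrane, applied for 1 hour at 4 °C to galactose-induced yeast display cells.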
row,Sequence,polyreactivity (PSR sort gate)
1,QVQLVESGGGLVQAGGSLRLSCAASGSTFAVNAMGWYRQAPGKERELVAVITGNGANTYYADSVKGRFTISRDNAKNTVYLQMNSLKPEDTAVYYCNARLFSQSHYYYWGQGTQVTVSS,high polyreactivity
2,QVQLVESGGGLVQAGGSLRLSCAASGSTFAWYDMGWYRQAPGKEREFVAAIDYGGGSTYADSVKGRFTISRDNAKNTVYLQMNSLKPEDTAVYYCNADNWVYLYDYWGQGTQVTVSS,low polyreactivity
3,QVQLVESGGGLVQAGGSLRLSCAASGSTFAYNAKGWYRQAPGKERELTNYADSVKGRFTISRDNAKNTVYLQMNSLKPEDNAVYYCIAQIDFGVPDKRAWGYDYWGQGTQVTVSS,low polyreactivity
4,QVQLVESGGGLVQAGGSLRLSCAASGSTFAYNAMGWYRQAPGKERELVATMSYSGGTTDYADSVKGRFTISRDNAKNTVYLQMNSLKPEDTAVYYCNADHLTWGGWGIRKYDYWGQGTQVTVSS,high polyreactivity
5,QVQLVESGGGLVQAGGSLRLSCAASGSTFAYNAMGWYRQAPGNERELVAAISFTGDSTYYADSVKGRFTISRDNAKNTVYLQMNSLKPEDTRTSPVLSYDYWGQGTLVTVSS,low polyreactivity
6,QVQLVESGGGLVQAGGSLRLSCAASGSTFAYNDMGWYRLAPGKERELVADIRSGGNTNYADSVKGRFTISRDNAKNTVYLQMNSLKPEDTAVYYCATDGYRIDVYHPDYRYDYWGQGTQVTVSS,low polyreactivity
7,QVQLVESGGGLVQAGGSLRLSCAASGSTFAYYAMGWYRQAPGKERELVASISWRGGSTYYADSVKGRFTNSRDNAKNTVYLQMNSLKPEDTAVYYCAAGRFYIWSRSQEYDYWGQGTQVTVSS,low polyreactivity
8,QVQLVESGGGLVQAGGSLRLSCAASGSTFAYYDMGRYRPAPGKERELVAAITIDGRTSYADSVKGRFTISRDNAMNTVYLQMNSLKPEDTAVYYCNTEIRLSKYDYWGQGTQVTVSS,low polyreactivity
9,QVQLVESGGGLVQAGGSLRLSCAASGSTFCRNAMGWYRQAPGKERELVAAISRRGGSTYYADSVKGRFTISRDNAKNTVYLQMTSLKPEDTAVYYCYRDSSYKHNYDYWAQGTQVTVSS,high polyreactivity
10,QVQLVESGGGLVQAGGSLRLSCAASGSTFDANAMGWYRQAPGKERELVARMSRSTGSTYYADSVKGRFTISRDTAMNSVYLQLNSLKPVDTAVYYCAKVSRASNKYGYWGQGTQVTVSS,high polyreactivity
11,QVQLVESGGGLVQAGGSLRLSCAASGSTFDAYAMGWYIQAPGKERELVAAITNGGSTNYADSVKGRFTISRDNAKNTVYLQMNSLQPEDTAVYYCNAQHRTVRGIFGRFNYWGQGTQVTVSS,low polyreactivity
12,QVQLVESGGGLVQAGGSLRLSCAASGSTFDAYAMGWYRQAPGKERELVAAITNAGSTNYADSVKGRFTISRDNAKNTVYLQMNSLKPEDTAVYYCATDWYHRYLDGRYDYWGQGTQVTVSS,low polyreactivity
13,QVQLVESGGGLVQAGGSLRLSCAASGSTFDDNAMGGYREAPRKERELVAGISDGDDSTNYADSVKGRFTISRDNAKNTVYLQMNSLTPEDTEVYFCNARYVRTYGVRFGYDYWGQGTQVTVSS,low polyreactivity
14,QVQLVESGGGLVQAGGSLRLSCAASGSTFDDNAMGWYRQAPGKDRELVAGISTNGGSTSYADSVKGRFTISRDNAKNTVYLPMNSLKPEDTAVYYCAKGLYVQFDYWGQGTQVTVSS,low polyreactivity
15,QVQLVESGGGLVQAGGSLRLSCAASGSTFDDYDMGWYRQAPGKEREFVATIDWSGGSTYYADSVKGRFTNSRDNAKNTVYLQMNSLKPEDTAVYYCTALRYVVYFDDDYWGQGTQVTVSS,high polyreactivity
16,QVQLVESGGGLVQAGGSLRLSCAASGSTFDDYVMGWYRQAPGKERELVAGINSRGTSTDYADSVKGRFTISRDNAKNTVYLQMNSLIPEDTAVYYCAADDSHGYDYWGQGTQVTVSS,low polyreactivity
17,QVQLVESGGGLVQAGGSLRLSCAASGSTFDGNAMGWYRQAPGKDRELVAAITWRDGSPSYADSVKGRFTISRDNAKNTVYLQMNSLKPEDTAVYYCNADPGYLDEEYWGQGTQVTVSS,low polyreactivity
18,QVQLVESGGGLVQAGGSLRLSCAASGSTFDGNAMGWYRQAPGKERELVAAITYTTSSTYYADSVKGRFTISRDNAKNTVYLQMTSLKPEDTAVYYWGQGTQVTVSS,low polyreactivity
19,QVQLVESGGGLVQAGGSLRLSCAASGSTFDGNDMGWYRQAPGKERELVAAITIGGGSTYYADSVKGRFTISRDNAKNTVYLQMNSLKPEDTAVYYCAAVYFYSWEGDGDYWGQGTQVTVSS,low polyreactivity
20,QVQLVESGGGLVQAGGSLRLSCAASGSTFDGYAMGWSRQAPGKERELVAAITFDGSSTYYADSVKGRFTISRDNAKNTVYLQMNSLKPEDTAVYYCAAASSYWVLWDDYWGQGTQVTVSS,low polyreactivity
21,QVQLVESGGGLVQAGGSLRLSCAASGSTFDGYAMGWYRQAPGKERELVAAINWGGGSTRYADSVKGRFTISRDNAKNTVYLQMNSVKPEDTAVYYCAARRFAYYFQYLVGGYWGQGTQVTVSS,high polyreactivity
22,QVQLVESGGGLVQAGGSLRLSCAASGSTFDGYTMGWYRQAPGKERELVAAISWRGTSTYYADSVKGRFTISRDNAKNTVYLQMNSLKPEDTAVYYCGAENWKPRVYWIYSGHHGYWGQGTQVTVSS,low polyreactivity

row,Sequence,polyreactivity (PSR sort gate)
1,QVQLVESGGGLVQAGGSLRLSCAASGSTFDINAMGWYRQAPGKERELVAAINWSGDSTYYADSVKGRFTISRDTAKNTVYLQMNSLKPEDTAVYYCNADTIVAWFDIFEEMDSWGQGTQVTVSS,low polyreactivity
2,QVQLVESGGGLVQAGGSLRLSCAASGSTFDIYAMGWYRQAPGKERELVAAITSGGSTYADSVKGRFTISRDNAKNTVYLQKNSLKPVETAVYYSNADRWFGNYRHLTFLNDYWGQGTQVTVSA,low polyreactivity
3,QVQLVESGGGLVQAGGSLRLSCAASGSTFDIYAMGWYRQAPGKERELVAAITVSGGSTYYADSVKGRFTISRDNAKNTVYLQMNSLKPEDTAVYYCNADWSGWQGWYNYWGQGTQVTVSS,low polyreactivity
4,QVQLVESGGGLVQAGGSLRLSCAASGSTFDKNDMGWYRQAPGRERELVAAITSSGSSTYYADSVKGRFTISRDNAKNTVYLQMNSLKPADTAVYYCAADKYYYDRLSPSGDYWGQGTQVTVSS,low polyreactivity
5,QVQLVESGGGLVQAGGSLRLSCAASGSTFDNTMGWYRQEPGKEKEFVATISWRGGSTYYADSVKGRFTISRDNAKNTVYLQMNSLKPEDTAVYYCAAEVDYRVYWNEVDYWGQGTQVNVSS,low polyreactivity
6,QVQLVESGGGLVQAGGSLRLSCAASGSTFDNYAMGWYRQAPGKERELVAAINSRGGRTYYADSVKGRFTISRDNAKNTVYLQMNSLKPDDTAVYYCAAVGATHRFDYWGQGTQVTVSS,high polyreactivity
7,QVQLVESGGGLVQAGGSLRLSCAASGSTFDNYAMGWYRQAPGKERELVAAITTGVTTYYADSVKGRFTISRDNAKNTVYLQMISLKPEDTAVYYCAADYVSYSQARHEYGYWGQGTQVTVSS,low polyreactivity
8,QVQLVESGGGLVQAGGSLRLSCAASGSTFDPNVMGWYRQAPGKERELVAAISSIGGSTYYADSVKGRFTISRDNAKNTVYLQMNSLNPQDTAVYYCAAGYPRFGYDYWGQGTQVTVSS,high polyreactivity
9,QVQLVESGGGLVQAGGSLRLSCAASGSTFDPYAMGWYRQAPGKERELVAAISRSGASTYADSVKGRFTISRDNAKNTVYLQMNSLKPEDTAVYYCAADSGYPYDYWGQGTQVTVSS,low polyreactivity
10,QVQLVESGGGLVQAGGSLRLSCAASGSTFDPYAMGWYRQAPGKERELVATINTGGDTHYADSVKGRFTISRDNAKNTVYLQMNSLKPEDTAVYYCNADYGKSRWIFDYWGQGTQVTVSS,low polyreactivity
11,QVQLVESGGGLVQAGGSLRLSCAASGSTFDPYGKGWYRQAPGKERELVATITYSSGSTSYADSVKGRFTISRDHAKNTVYLQMNSLKPEDTAVYYCAKKYYTGYGYWGQGTQVTVSS,low polyreactivity
12,QVQLVESGGGLVQAGGSLRLSCAASGSTFDQNGMGWYRQAPGKERELVATISTSAGTYYADSVKGRFTISRDNAKNTVYLQMNSLKPEDTAVYYCNADLGGQYKEFDYWGQGTQVTVSS,low polyreactivity
13,QVQLVESGGGLVQAGGSLRLSCAASGSTFDQYAMGWYRQEPGKERELGAAISGSGGRTYYADSVKGRFTISRDNAKNTVYLQLNSLKPEDTAVYYCNTRAWRWGTDNSWGQGTQVTVSS,high polyreactivity
14,QVQLVESGGGLVQAGGSLRLSCAASGSTFDRNAMGWYRPAPGKERELVAAISWTGTSTRYADSVKGRFTISRDNAKNTVYLHMNSLKPEDTAGYYCAARGYSYYQRLYYWGQGTQVTVSS,high polyreactivity
15,QVQLVESGGGLVQAGGSLRLSCAASGSTFDRNVMGWYRQAPGKERELVAAISRVSSTNYSDSVKGRFTISRDNAKNTVYLQMNSLKPEDTAVYYCAADRAGSIMNYWGQGTQVTVSS,low polyreactivity
16,QVQLVESGGGLVQAGGSLRLSCAASGSTFDRYAMGGYIQAPGKERELVAAISWSGGSTYYADSVKGRFTISRDNAKNTVYFQMNSLKPEDTAVYYCASPYYYLHNQRYWGYDYWGQGTQVTVSS,high polyreactivity
17,QVQLVESGGGLVQAGGSLRLSCAASGSTFDRYDMGWYRQAPGKERELVAAITRRGGSTYYADSVKGRFTISRDNAKNTVYLQMNSLKPEDTAVYYCNAKHFAYSVAHPYLRYGYDYWGQGTQVTVSS,low polyreactivity
18,QVQLVESGGGLVQAGGSLRLSCAASGSTFDSNAMGWYRQAPGKERELVAPISGSASRTYYADSVKGRFTISRDNAKNTVYLQMNSLKPEDTAVYYCAAVRYHMYYWGQGTQVTVSS,high polyreactivity
19,QVQLVESGGGLVQAGGSLRLSCAASGSTFDSYAMGWYRPAPGKERELVAAISSGGSTNYADSVKGRFTISRDNAKNTVYLQMYSLKPEDTAVYYCAAYGGHIWWLYRHYGYDYWGQGTQVTVSS,low polyreactivity
20,QVQLVESGGGLVQAGGSLRLSCAASGSTFDTNAMGWSRQAPGKERELVAAISASGGSTYYADSVKGRFTISRDNAKNTVYLQMNSLKPEDTAVYYCAKTYSTRWWGNGGDYWGQGTQVTVSS,high polyreactivity
21,QVQLVESGGGLVQAGGSLRLSCAASGSTFDTNAMGWYRQAPGKELVAAISSAGSTYYADSVKGRFTISRDNAKNTVYLQMNSLKPVATAVYYCAAGNAESPYESLEDDYWGQGTQVTVSS,low polyreactivity
